According to article PMC6719441, “CDK2 regulates the NRF1/Ehmt1 axis during meiotic prophase I”:

Target: T1, NRF1 (GST-NRF1, unphosphorylated) (Homo sapiens, UniProt Q16656 1-503)
T1 sequence: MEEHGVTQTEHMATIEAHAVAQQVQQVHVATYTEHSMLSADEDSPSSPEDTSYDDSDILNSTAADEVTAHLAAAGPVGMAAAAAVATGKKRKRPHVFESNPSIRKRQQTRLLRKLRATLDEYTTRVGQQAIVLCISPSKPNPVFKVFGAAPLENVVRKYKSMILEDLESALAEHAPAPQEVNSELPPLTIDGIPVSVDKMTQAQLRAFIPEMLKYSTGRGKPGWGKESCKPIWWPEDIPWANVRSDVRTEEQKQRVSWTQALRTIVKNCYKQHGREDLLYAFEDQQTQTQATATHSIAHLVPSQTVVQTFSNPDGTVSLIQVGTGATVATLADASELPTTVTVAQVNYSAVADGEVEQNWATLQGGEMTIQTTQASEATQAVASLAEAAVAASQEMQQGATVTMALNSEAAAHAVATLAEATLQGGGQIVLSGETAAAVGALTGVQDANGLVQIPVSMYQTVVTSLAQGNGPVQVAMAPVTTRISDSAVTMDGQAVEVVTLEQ
Experiment: EMSA; 1-3 ug protein, poly[d(I-C)]; concentration-dependent; 5 mM Hepes pH 8.0, 20 nM DTT (so in the source), 30 mM NaCl, 10 ng DIG probe, 1 ug poly[d(I-C)], 0.5-2 ug GST-NRF1 (Methods; legend 1-3 ug), 5 min RT; 6% native TBE-PAGE, 0.5x TBE pH 8.3, 4 C
Settings: protein: recombinant; tags: N-terminal GST (pGEX6P1); chain copies: 2; label: DIG (DIG 3'-end labeling kit named); blunt

B1: Ehmt1 promoter probe (PKO 5019/PKO 5020) (dsDNA)
DNA 1: GCCACCTGGCCTCGCCTCCAGACGCAGGCGCCGCACGGGTGGGTC
DNA 2: GACCCACCCGTGCGGCGCCTGCGTCTGGAGGCGAGGCCAGGTGGC
  binding result: binds
